Results taken from patent publication US7642231 (MAYO FOUNDATION FOR MEDICAL EDUCATION AND RESEARCH A …, dated 2010).
Where two headings read alike, the source gives them in different places. Numbered stars: 1 amine (or outer) side, 2 acyl side, 3 side chain; on linkers, the order of the positions; unused ones are H or OH. Square brackets hold non-standard residues; d marks the D form. Ends that are not written are not given here. dneoTrp = D-neo-Trp, (2R)-2-amino-3-(1H-indol-4-yl)propanoic acid, O=C([C@@H](Cc1cccc2[nH]ccc12)N[*:1])[*:2]; Ala(indol-4-yl) = N[C@@H](Cc1cccc2[nH]ccc12)C(=O)O; 1Nal = N[C@@H](Cc1cccc2ccccc12)C(=O)O; NMeR = CN[C@@H](CCCNC(=N)N)C(=O)O; Tle = CC(C)(C)[C@H](N)C(=O)O

B1: Eisai (peptide)
peptide: [NMeR]KPW[Tle]L
notes: Hexapeptide N-methyl-Arg, L-Lys, L-Pro, L-Trp, tert-Leu, L-Leu (Tsuchiya et al., EP application 89104302.8); also called Eisai compound; Eisai analog
B2: NT65L (peptide)
peptide: RRP[Ala(indol-4-yl)][Tle]L
notes: NT(8-13) analog
B3: NT34 (peptide)
peptide: RRP[1Nal]IL
notes: NT(8-13) analog
B4: NT67L (peptide)
peptide: [dK]RP[Ala(indol-4-yl)]IL
notes: NT(8-13) analog
B5: NT(8-13) (peptide)
peptide: RRPYIL
notes: Synthetic hexapeptide, residues 8-13 of neurotensin
B6: NTW (peptide)
peptide: RRPWIL
B7: NT2 (peptide)
peptide: [dK]RPYIL
notes: NT(8-13) analog
B8: NT64L (peptide)
peptide: RRP[Ala(indol-4-yl)]IL
notes: NT(8-13) analog
B9: NT64D (peptide)
peptide: RRP[dneoTrp]IL
notes: NT(8-13) analog
B10: NT(9-13) (peptide)
peptide: RPYIL
notes: Synthetic pentapeptide, residues 9-13 of neurotensin

Key:
[1] = target: NT binding sites within rat brain (PAG and rest of brain homogenates) (rat); assay: 0.3 nM [125I]NT binding to PAG homogenate of NT69L-treated rats
[2] = target: NT binding sites within rat brain (PAG and rest of brain homogenates) (rat); assay: 0.3 nM [125I]NT binding to rest-of-brain homogenate of NT69L-treated rats
[3] = target: NT binding sites within rat brain (PAG and rest of brain homogenates) (rat); assay: 0.3 nM [125I]NT binding to PAG homogenate of control rats
[4] = target: T1, rat NTR1 (rat, UniProt P20789 1-424); assay: radiolabeled competitive binding assay, CHO cells expressing rat NTR (repeats Table II)
Experimental: (§1) For binding assays, crude membranal preparations were prepared by centrifugation of the cellular pellet at 35,600×g for ten minutes. The supernatant was decanted and discarded, and the cellular pellet was resuspended in 2 mL of Tris-HCl, 1 mM EDTA (pH 7.4) followed by homogenization with a Brinkmann Polytron at setting 6 for ten seconds. Centrifugation was repeated as above and the supernatant was decanted and discarded. The resulting final cellular pellet was resuspended in 50 mM Tris-HCl, 1 mM EDTA, 0.1% bovine serum albumin, and 0.2 mM bacitracin.
(§2) Incubation was at 20° C. for 30 minutes. Each reaction was terminated by addition of cold 0.9% NaCl (5×1.5 mL) followed by rapid filtration through a GF/B filter strip that had been pretreated with 0.2% polyethylenimine.

[5] = target: T2, human NTR1 (human, UniProt P30989 1-418); assay: competition with [3H]NT, membranes of CHO-K1 cells expressing human NTR1
[6] = target: T1, rat NTR1; assay: cell-based or functional assay
[7] = target: T2, human NTR1; assay: cell-based or functional assay
[8] = target: T1, rat NTR1; assay: competition with [3H]NT, membranes of CHO-K1 cells expressing rat NTR1
Experimental: as §1, §2

[9] = target: T3, 5HT2A receptor in human brain tissue (human, UniProt P28223 1-471); assay: competition with [3H]ketanserin, human brain tissue
T3 construct: whole, on cells; Native receptor in human brain tissue, labeled with [3H]ketanserin; also called serotonin receptor

[10] = target: Dopamine receptors, human brain tissue (human) (UniProt P14416); assay: radiolabeled competitive binding assay, human brain tissue
[11] = target: adrenergic α2 receptors, human brain tissue (human); assay: as above
[12] = target: T2, human NTR1; assay: radiolabeled competitive binding assay, CHO cells expressing human NTR (repeats Table II)
Experimental: as §1, §2

[13] = target: T2, human NTR1; assay: competition with [3H]NT, membranes of CHO-K1 cells expressing human NTR1
Experimental: as §1, §2

[14] = target: T2, human NTR1; assay: cell-based or functional assay; remark: listed apart in the source
[15] = target: T2, human NTR1; assay: cell-based or functional assay; remark: listed apart in the source
[16] = target: T2, human NTR1; assay: competition with [3H]NT, CHO-K1 membranes; receptor not given, human fits Table II
Experimental: as §1, §2

[17] = target: adrenergic α1 receptors, human brain tissue (human); assay: radiolabeled competitive binding assay, human brain tissue
[18] = target: T2, human NTR1; assay: competition with [3H]NT, CHO-K1 membranes; receptor not given, human taken from the context
Experimental: as §1, §2

T3 sequence (P28223 whole entry): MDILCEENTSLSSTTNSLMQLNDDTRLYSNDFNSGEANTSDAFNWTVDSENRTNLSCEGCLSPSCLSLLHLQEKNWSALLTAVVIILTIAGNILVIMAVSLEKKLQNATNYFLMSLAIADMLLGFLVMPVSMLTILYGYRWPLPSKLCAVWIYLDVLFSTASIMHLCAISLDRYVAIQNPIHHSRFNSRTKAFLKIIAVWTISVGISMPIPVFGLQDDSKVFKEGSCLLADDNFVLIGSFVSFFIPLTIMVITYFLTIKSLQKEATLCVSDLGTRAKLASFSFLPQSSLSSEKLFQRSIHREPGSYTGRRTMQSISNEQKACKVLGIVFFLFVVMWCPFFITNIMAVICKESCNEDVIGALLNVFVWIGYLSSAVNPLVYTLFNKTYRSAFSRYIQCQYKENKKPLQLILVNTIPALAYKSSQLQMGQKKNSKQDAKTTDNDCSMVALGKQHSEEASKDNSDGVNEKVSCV
T1 sequence (P20789 whole entry): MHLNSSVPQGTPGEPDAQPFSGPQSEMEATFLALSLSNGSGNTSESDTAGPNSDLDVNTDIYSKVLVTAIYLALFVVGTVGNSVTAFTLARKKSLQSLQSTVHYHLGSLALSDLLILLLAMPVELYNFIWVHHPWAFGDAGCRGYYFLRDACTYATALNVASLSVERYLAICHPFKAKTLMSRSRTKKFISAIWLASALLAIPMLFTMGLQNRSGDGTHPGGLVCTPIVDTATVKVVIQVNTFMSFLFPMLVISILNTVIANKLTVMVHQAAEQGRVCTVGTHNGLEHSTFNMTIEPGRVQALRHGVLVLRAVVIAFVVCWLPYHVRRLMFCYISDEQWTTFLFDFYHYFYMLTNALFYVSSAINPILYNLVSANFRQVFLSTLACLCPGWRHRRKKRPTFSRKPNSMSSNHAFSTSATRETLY
T2 sequence (P30989 whole entry): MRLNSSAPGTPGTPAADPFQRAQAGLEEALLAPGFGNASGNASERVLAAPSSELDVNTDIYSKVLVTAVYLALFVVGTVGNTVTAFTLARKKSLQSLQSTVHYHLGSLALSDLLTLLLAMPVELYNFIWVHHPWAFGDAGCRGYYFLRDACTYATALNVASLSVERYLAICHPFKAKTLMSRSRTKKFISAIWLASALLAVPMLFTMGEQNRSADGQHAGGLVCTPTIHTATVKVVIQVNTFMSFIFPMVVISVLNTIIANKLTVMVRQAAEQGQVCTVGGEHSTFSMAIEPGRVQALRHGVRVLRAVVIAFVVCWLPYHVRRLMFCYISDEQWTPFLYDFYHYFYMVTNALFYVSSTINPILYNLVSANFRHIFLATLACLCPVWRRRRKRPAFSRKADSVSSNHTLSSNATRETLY
Sequence of Dopamine receptors, human brain tissue (human) (P14416 whole entry): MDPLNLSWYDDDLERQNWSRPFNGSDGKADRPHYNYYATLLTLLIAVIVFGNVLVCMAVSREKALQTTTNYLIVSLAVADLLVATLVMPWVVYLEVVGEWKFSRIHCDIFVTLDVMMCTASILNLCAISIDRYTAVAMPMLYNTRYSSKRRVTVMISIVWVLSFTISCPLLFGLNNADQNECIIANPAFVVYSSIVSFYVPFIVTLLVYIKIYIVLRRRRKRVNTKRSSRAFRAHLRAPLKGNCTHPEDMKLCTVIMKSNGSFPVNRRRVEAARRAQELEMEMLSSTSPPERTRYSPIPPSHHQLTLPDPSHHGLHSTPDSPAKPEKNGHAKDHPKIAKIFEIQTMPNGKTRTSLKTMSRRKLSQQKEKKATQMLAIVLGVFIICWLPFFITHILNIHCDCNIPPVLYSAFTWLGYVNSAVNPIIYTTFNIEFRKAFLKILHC

Molecule | PI Turnover EC50 [6] [nM] | Kd [8] [nM] | Kd [9] [nM] | Kd [13] [nM] | also measured
Neurotensin (NT) (peptide) | – | – | – | – | dpm/µg protein (dpm/µg protein) [1]: 1.89; dpm/µg protein (dpm/µg protein) [2]: 2.1; dpm/µg protein (dpm/µg protein) [3]: 2.34
NT69L (peptide) | 1.34 | 0.82 | 34600 | – | Kd [4]: 0.82 nM; Kd [5]: 1.55 nM; fold increase in binding affinity over Eisai [5]: 60 fold; PI turnover potency, fold improvement over Eisai analog [6]: 2 fold; PI Turnover EC50 [7]: 2.3 nM; PI turnover potency, fold improvement over Eisai analog [7]: 130 fold; fold increase in binding affinity over Eisai [8]: 6 fold; Kd [10]: 13300 nM; Kd [11]: 58600 nM; Kd [12]: 1.55 nM
B1 | 3.1 | 5.4 | – | 95 | fold weaker than at the rat receptor [13]: ~20 fold; PI turnover potency, fold weaker at human than at rat NT receptor [14]: ~100 fold; PI Turnover EC50 [15]: 300 nM
B2 | – | 0.075 | – | 0.32 | fold decrease in binding affinity compared to NT64L [16]: 3 fold
B3 | – | 0.046 | – | – | –
B4 | 13 | 0.21 | 7400 | – | Kd [4]: 0.21 nM; Kd [17]: 6900 nM
B5 | – | – | 4400 | – | –
B6 | – | 0.34 | – | 3.2 | PI Turnover EC50 [15]: 110 nM; fold reduction in binding affinity compared to NT64L [18]: > 30 fold
B7 | – | 0.8 | 6800 | – | –
B8 | 2.3 | 0.1 | 6600 | – | –
B9 | – | 3.8 | – | – | –
B10 | – | 46 | 6340 | 30 | fold weaker than NT(8-13) [13]: > 200 fold; PI Turnover EC50 [15]: 380 nM; fold weaker than NT(8-13) [8]: > 200 fold
